The experiment addresses monoacetylated histone H3 peptide …(AcK)APRKQL, acetylated on lysine-14. As to the kind of experiment: cell-based or functional assay.

monoacetylated histone H3 peptide …(AcK)APRKQL, acetylated on lysine-14, sequence (peptide, as listed by the source): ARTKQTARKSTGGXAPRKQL

In the case of “recombinant human SIRT2 (6xHis-tagged, with factor Xa cleavage site, purified from E. coli) (from UniProt Q8IXJ6 1-389) (enzyme)”, the Km, deacetylation of acetylated H3 peptide, charcoal-binding assay is 54.2 µM and the V/K, deacetylation of acetylated H3 peptide, charcoal-binding assay was 3930 M⁻¹ s⁻¹.
For “recombinant yeast Hst2p (from UniProt P53686 1-357) (enzyme)”, the Km, deacetylation of acetylated H3 peptide, charcoal-binding assay is 0.28 µM and the V/K, deacetylation of acetylated H3 peptide, charcoal-binding assay came out at 718000 M⁻¹ s⁻¹.

These data come from patent publication US20040028607A1.
